What was measured:
[1] = test system: primary tumors and lung metastases; assay: IHC staining of tumor samples from treatment groups (Ki67, Casp3, CD31, α-SMA); type: in vivo, NSG female mice
Procedure: FIGS. 17F-17I are graphs quantifying positives cells per field where primary tumors were collected from indicated treatment groups from FIG. 17D and then subjected to IHC staining with indicated antibodies, including % Ki67^+ (17F), % Casp3^+ (17G), % CD31^+ (17H), and % α-SMA^+ (17I).
TIC staining was performed as previously described (Wan et al., 2014). Briefly, Paraffin-embedded primary tumor or lung samples were sliced into 4 μm thickness. The slides were baked overnight at 60° C. Next, the tissue slides were washed with PBS after deparaffinization and hydration and then boiled in citrate buffer at 100° C. for 40 min. After treated with 3% H2O2 for 30 min to block endogenous peroxidase, slides were incubated at 4° C. overnight with Ki67 (Leica Biosystem, Ki67-MM1-L-CE-S), cleaved caspase-3 (Cell signaling, 9661S), p-EGFR (Cell signaling, 3777), p-FAK (Cell signaling, 8556), CD31 (Cell signaling, 77699), -SMA (Sigma, A5228), or Tinagl1 (Sigma, HPA048695) antibodies. Following washes with PBS, slides were then incubated with HRP-conjugated goat anti-rabbit or mouse secondary antibody (Genetech) for 30 min at room temperature. Sections were stained by DAB and then counterstained with Gill hematoxylin according to manufacturer's instructions.

Tinagl1-EGFR interaction = biological target: T1, Tinagl1-EGFR interaction (Homo sapiens, UniProt P00533); assay: Competition IP for Tinagl1-HA / GFP-EGFR interaction in HEK293T lysate; type: binding
T1 construct: host or cells: HEK293T
Procedure: FIG. 13C is an image of IP and WB assays where HEK293T cells co-expressing Tinagl1-HA and GFP-EGFR were lysed and divided into multiple groups, then PBS or indicated amount of proteins was added into each group, then IP followed by WB assays were performed.
FIG. 13D is a graph quantifying the ability of the indicated protein to compete with Tinagl1-EGFR interaction, by measuring GFP-EGFR level in the groups from FIG. 13C.
Whether Tinagl1 inhibits EGFR activation in a similar manner was tested. […] Whether Tinagl1 and EGF compete with each other to interact with EGFR was tested.

[2] = test system: orthotopically implanted mammary tumors; assay: r-Tinagl1 treatment of orthotopically implanted mammary tumors; type: in vivo, mice; conditions: continuous treatment of r-Tinagl1 for 7 weeks
Excerpt: (§1) To test if recombinant Tinagl1 protein (r-Tiangl1) treatment would slow tumor progression, full length recombinant human Tinagl1 with 6×His tag at the C-terminus (r-Tinagl1) was expressed in HEK293T cells and r-Tinagl1 was purified from the culture media using Ni^2+-NTA purification system. r-Tinagl1 was used to treat orthotopically implanted mammary tumors.
For xenograft studies, 8-weeks immunocompromised NOD Scid Gamma (NSG) or immunocompetent FVB females were used. Cells were suspended in 10 μl of PBS for mammary gland injection (MFP), or were suspended in 100 μl of PBS for intravenous injection. For human patient-derived xenograft (PDX, HCL001, kindly provided by Dr. Alana Welm) study, we followed the standard protocol for PDX transplantation, maintenance and digestion of the tumors (DeRose et al., 2011). 2×10^4 cells were suspended in 10 μl of PBS and subjected to MFP injection. […] Primary tumors were quantified once per week via caliper measurement. All cell lines used for lung metastasis experiments were stably labeled with a firefly luciferase expressing vector and were monitored by weekly bioluminescent imaging (BLI). At protocol-defined endpoints, lungs were dissected and fixed in bouin's solution and the metastatic lesions were counted.

FAK = assay: FN- or EGF-dependent FAK phosphorylation (WB); type: cell-based; conditions: tested at 10, 100, 1000 and 10,000 ng/mL
Excerpt: For WB analysis, cells were collected and lysed with IP lysis buffer described above. After boiled with SDS laemmli buffer, the samples were resolved with SDS-PAGE gel and immunoblotted with standard protocols.
FN is the major ligand for integrin α5β1 and αvβ1, and triggers integrin/FAK signal pathway after binding. FN was employed to evaluate the effects of Tinagl1 on the integrin/FAK pathway. […] Likewise, the activation of FAK by FN was attenuated in the cells overexpressing Tinagl1.

EGFR dimerization = biological target: T2, EGFR dimerization (Homo sapiens, UniProt P00533); assay: EGFR dimerization in LM2 cells (co-IP of EGFR-GFP/EGFR-Myc; DSS cross-linking); type: cell-based; conditions: 1 μg/ml r-Tinagl1 1 hr
T2 construct: host or cells: LM2
Procedure: FIG. 14A is an image of WB analyses where LM2 cells were transfected with plasmids to overexpress GFP-EGFR and EGFR-Myc. 48 hr after transfection, the cells were treated with or without 1 μg/ml of r-Tinagl1 for 1 hr, followed by 10 min of 1 ng/ml EGF treatment, then collected and immunoprecipitated with either IgG or anti-Myc antibody, after which the IP samples were subjected to WB analysis.
FIG. 14B is a graph illustrating the quantified amount of EGFR-GFP that interacts with EGFR-Myc, normalized to PBS treatment group.
FIG. 14C is an image of WB analyses where LM2 cells stably expressed EGFR-Myc were pretreated with PBS or 1 μg/ml of r-Tinagl1 for 1 hr, treated with 1 ng/ml of EGF for another 10 min, then cells were collected and the dimers were cross-linked with disuccinimidyl suberate (DSS) treatment, followed by WB analysis.
FIG. 14D is a graph illustrating the ratio of dimerized EGFR in each treatment group that was quantified.
Whether Tinagl1 prevents EGFR dimerization independent of interfering with EGF binding to EGFR was tested. […] To further validate this conclusion, LM2 cells with EGFR-Myc stably expressed were treated with EGF or r-Tinagl1 alone or combination. […]
The assay was performed as previously described (Wang et al., 2015). […] Finally, the cells were then lysed with IP lysis buffer for 20 min on ice, and EGFR dimerization was analyzed by WB.

[3] = Toxicity assessment in r-Tinagl1 treated mice (body weight, CBC, H&E and Alcian blue staining, ALT, AST); type: in vivo; conditions: ALT and AST activity
Excerpt: as §1

B1: r-Tinagl1: full length recombinant human Tinagl1 with 6×His tag at the C-terminus [SEQ ID NO.: 24], expressed in HEK293T cells (protein, listed as Homo sapiens)
chain: MWRCPLGLLLLLPLAGHLALGAQQGRGRRELAPGLHLRGIRDAGGRYCQEQDLCCRGRADDCALPYLGAICYCDLFCNRTVSDCCPDFWDFCLGVPPPFPPIQGCMHGGRIYPVLGTYWDNCNRCTCQENRQWQCDQEPCLVDPDMIKAINQGNYGWQAGNHSAFWGMTLDEGIRYRLGTIRPSSSVMNMHEIYTVLNPGEVLPTAFEASEKWPNLIHEPLDQGNCAGSWAFSTAAVASDRVSIHSLGHMTPVLSPQNLLSCDTHQQQGCRGGRLDGAWWFLRRRGVVSDHCYPFSGRERDEAGPAPPCMMHSRAMGRGKRQATAHCPNSYVNNNDIYQVTPVYRLGSNDKEIMKELMENGPVQALMEVHEDFFLYKGGIYSHTPVSLGRPERYRRHGTHSVKITGWGEETLPDGRTLKYWTAANSWGPAWGERGHFRIVRGVNECDIESFVLGVWGRVGMEDMGHHVDHHHHHH
modifications: C-terminal 6xHis tag
CD31+ endothelium ([1]; primary and lung metastasis): significantly reduced | tumor cell proliferation (Ki67 staining) ([1]; primary tumor and lung metastatic nodules): strong anti-proliferative effects on both primary tumors and lung metastases | competition with Tinagl1-HA to interact with EGFR (Tinagl1-EGFR interaction): competed | primary tumor growth [2]: significantly inhibited | spontaneous lung metastasis [2]: significantly inhibited | FN-dependent activation of FAK signaling (FAK phosphorylation at Tyr397) (FAK): significantly reduced FN-dependent activation of FAK signaling | amount of EGFR-GFP bound by EGFR-Myc (EGFR dimerization; in the presence of EGF): significantly reduced the amount of EGFR-GFP bound by EGFR-Myc | dimer form of EGFR (DSS cross-linking) (EGFR dimerization; then EGF): reduced | hematologic, GI tract, and liver toxicity [3]: no significant hematologic, GI tract, and liver toxicity | hematologic, GI tract, and liver toxicity ([3]; listed as recombinant Tinagl1 protein): without causing significant toxicity
